Tested on: K4 kissing-loop RNA reporter
Test: apparent KD of K4 kissing-loop reporter; higher = weaker reporter binding
Conditions: Eterna round: R107
Protocol: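 RNA-MaP round R107: designed RNA switches with theophylline, tryptophan, arginine or FMN aptamers are transcribed on-chip within common flanks. They are titrated with a labelled K4 kissing-loop RNA reporter in RNA-MaP buffer (100 mM Tris pH 7.5, 80 mM KCl, 4 mM MgCl2), without ligand or with the indicated ligand. Median apparent KD per design.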

[1] = input ligand: theophylline 20 uM
[2] = input ligand: tryptophan 2.4 mM
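Note: bound reporter read as fluorescence of individual clusters on recovered sequencing chips by microscopy, with normalized cluster intensities fitted with a binding model.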

Sequence | apparent KD of K4 kissing-loop reporter (input ligand: FMN 200 uM) | apparent KD of K4 kissing-loop reporter (input ligand: arginine 13.2 mM) | apparent KD of K4 kissing-loop reporter (input ligand: none) | apparent KD of K4 kissing-loop reporter [1] | apparent KD of K4 kissing-loop reporter [2]
GGUAGCAUGGCGGCCGCCACUACCUAGUGAUGUUAGGCUGUGGACAUAGGAGCAAAAUAAAUAUGUAGGACCGGGCCAUGCUACC | 127 nM | 101 nM | 121 nM | 126 nM | 123 nM
UCCUAGGCUCGAAAGAGCCUAGGAUAUACUCAGGAUAUCCGGAAACGGAGAAGGGAGUAACUAGUGAUGUUAGGGAUUCCCUAUU | 260 nM | 96 nM | 109 nM | 98.7 nM | 96.5 nM
CUGACCAACAGCGAUACCAGCGUGGAGUGAUGUUCCGUGGAUCGGAGUGAUGUUCCGAAGCGCCCUUGGCAGCGCAGAAGCAGGA [Exclusion Theophylline B GF11] | 197 nM | 136 nM | 201 nM | 150 nM | 152 nM
CGGCGGAGUGAUGUUCCACCUACUGCGGAUACCAGCUUUGCCAGAGGCCCUUGGCAGCCGCACGGCUCAGUGAUGUUGGGUUGCG [Same State Theophylline A G12] | 237 nM | 162 nM | 227 nM | 219 nM | 195 nM
GCCGUACGCAUGGAUACCAGCAUGCAUAUUAGCUAGUGAUGUUAGCGCUAUGCGAUGCUAUGCCCUUGGCAGCCAUGCGUACGGC | 124 nM | 108 nM | 127 nM | 247 nM | 132 nM
CCGGCCCAGCCGGAUACCAGUGCGCCGCAGGGAACGGCGGGCCCAGAGUGAUGUUCGGGACACCCUUGGCAGCCGCCUGGGUCGC [#2 Same State - Theophylline B Attempt #27 (HarryS)] | 234 nM | 197 nM | 309 nM | 314 nM | 297 nM
CGACUAGUCUUGCAACCCUAGUCGAUAUGCUAGGAUAUCAGGAAACUGAGAAGGAGUUUACUUGCAGUGAUGUUGCAAGAAUAAU [KL-SSFMN-A10] | 135 nM | 153 nM | 133 nM | 172 nM | 129 nM
GCACUACAAUAAGGAUAUCAUAAAAUGGAGAGCGAGUGAUGUUCGCAGAGACACCUAUUUUUCCUAUGAGAAGGUAUUAACGCCG [theeternabot_sameState_KL_FMN_B_40] | 97.8 nM | 99 nM | 120 nM | 161 nM | 93.2 nM
ACUUGAGCACAUAGCACACCAAGCAGUAGGUAGGAUAUCCGGCUUAGGAGAAGGACCAUGCAGUGAUGUUGCAUGCUCCUCCAUG [Zaribies] | 258 nM | 95.8 nM | 76 nM | 92.3 nM | 99.9 nM
AAGGUUUAGCACGAUACCAGCCUGGAGGCCAGUGAUGUUGGCCGAUUUGAACAGAAUUAAGGCCCUUGGCAGCGUCUCUAAAACC [Dierra] | 191 nM | 180 nM | 192 nM | 144 nM | 176 nM
CCCUAUAUAUGCAGUGAUGUUGCAACUGAUACCAGUAUCGAAAGAUACCCUUGGCAGCGGAAAACCGCUACGUAAUUUAAUAGGG [Ex Theophylline A K4 21] | 384 nM | 422 nM | 419 nM | 461 nM | 265 nM
UAAGAAUAAGAUGCAGUGAUGUUGCAUCUACGAGGACCGGUACGGCCGCCACUCGAGGUCCUCGAACUGCAUCAGAGGACAAUAA [(H,1)-(H,2)-(Trp1)-(Trp2)-(T)'-(H)'-(T)''] | 253 nM | 184 nM | 286 nM | 390 nM | 300 nM
ACAUGACGUGCGCCCGUCAUGAAACGUGCAAAGGAUAUUCCGUUUUGAAGAAGGUUGCGGUAGUGUAGUGAUGUUGCUCCGCCGU [theeternabot_sameState_KL_FMN_A_11] | 512 nM | 360 nM | 343 nM | 315 nM | 347 nM
AAGUUAUGAUCUGAUACCAGACUUUAUCUUGUUUAUAAGUCAAGUGAUGUUUGACUAUUAGUCCCUUGGCAGCAGUAUUGUUUAA [#18 K4 Theophylline B Same State] | 263 nM | 268 nM | 302 nM | 228 nM | 255 nM
UAUCUAUGCUCGGCCGCCACUAGGACCGGGUAGUCUCUAGUGAUGUUAGUCUCUACGGCCGCCACUAGGACCGGGAGUGUAGAUA [KL-SSTryp-B16 #DoubleAptamer] | 286 nM | 235 nM | 224 nM | 225 nM | 82.5 nM
UUACCAAGUGAUGUUUGGAAAUAUCCUAGGCAGGAUAUGCGGAAACGCAGAAGGGCCACCUUCUAGUGAAGGAAACUUCGCUAUU [Ex FMN A 3] | 288 nM | 199 nM | 272 nM | 246 nM | 263 nM
GCAGUGAUGUUGCGCGGGUACGGUAGAGUGCGAGGACCGGUACGGCCGCCACUCGUACGGAACUGGCUAAUAUAUGGAUAGGUGA [V] | 496 nM | 318 nM | 446 nM | 406 nM | 243 nM
UGUCAUUGGUCGGCCGCCACUACAAGGUCAAAGACCAAAGAGUGAUGUUCUUAGACGAAAGUCAGUAGGACCGGGACCGAUGACU [TrypBS 8 #SwitchBubble #K4Middle] | 1050 nM | 707 nM | 1320 nM | 674 nM | 274 nM
GGGCGCGGCGCGGCCGCCACUGCGCCUGGGUGCUCGCUGAGUGAUGUUCGUCGGCGGUUGGGUGGUAGGACCGGGUGCUGGCCGG [BDazzled - #13 SS Tryptophan B] | 654 nM | 463 nM | 525 nM | 522 nM | 527 nM
AGACUACCACACUGUCAAUAGACAGUGAGCUAGGAUAUGCUGAUAAGCAGAAGGAGUGAUGUUCCUCGGUAGUCAAUAAAAUAAU [FmnAX 13 G29+C67] | 373 nM | 357 nM | 364 nM | 503 nM | 378 nM
AGACUACCACACUGUCAAUAGACAGUGAGGUAGGAUAUGCUGAAAAGCAGAAGGACCAGUGAUGUUGGUAGGUAGUCAAAAUAAA [FmnAX 11 #SwitchBubble #StaticStem #K4Early] | 185 nM | 112 nM | 84.8 nM | 128 nM | 74.9 nM
GGGUCUGCCGGAAGGAGCGCACUAUGGAGUGAUGUUCCAUGACCGCACAGCUUGCGGUCAGUGCAGGUAGGUCGCCGGUAGCGUU [Inesor] | 163 nM | 154 nM | 175 nM | 177 nM | 162 nM

Sequence | apparent KD of K4 kissing-loop reporter (input ligand: FMN 200 uM) | apparent KD of K4 kissing-loop reporter (input ligand: arginine 13.2 mM) | apparent KD of K4 kissing-loop reporter (input ligand: none) | apparent KD of K4 kissing-loop reporter [1] | apparent KD of K4 kissing-loop reporter [2]
UAAAUCACACGAGAUACCAGCCAAACCGAACUUGAGCACUAUAGUGAUGUUAUAUUGCGAGGCCCUUGGCAGCUCAAUAGAACAA [theeternabot_sameState_KL_Theo_B_11] | 213 nM | 174 nM | 190 nM | 145 nM | 182 nM
GUAUCGCUAGGAGGAUAUUUCAAUUUGACUCUUUGAGUUAAUACGGAGUGAUGUUCCGUUUUACGGAAAGAAGGCCUAGUGAUAC [FMN B 14] | 115 nM | 150 nM | 192 nM | 172 nM | 166 nM
GCAACAUUGGGAGGAUAUCAUUCUGAGUGAUGUUCAGGGUUCAGCUAACGAAAGUUAGUUGUACCAUGAGAAGGUCUAAUGUUGC [Omei KL FMN B SS A v6] | 342 nM | 975 nM | 1180 nM | 1020 nM | 1150 nM
GGUAGCAUGGCGGCCGCCACUUCAAAUGGAGUGAUGUUCCAAGGCAUCGCGAAAGCGAUGCCAGGAAGGACCGGGCCAUGCUACC | 831 nM | 859 nM | 522 nM | 566 nM | 143 nM
UCCUGCAAUCUGCCACGAAAGUGGAUUGAUACCAGAGUCGAAAGACUCCCUUGGCAGCGAGUGAUGUUCGAAGCAGGUAAAUAAA | 99.4 nM | 149 nM | 124 nM | 160 nM | 91.7 nM
UUUUAAAUGUCUGAUACCAGAGAAAAUAUAUGUAGUGAUGUUAUAUACAAAUUUAAUAAGCUCCCUUGGCAGCAGUAUGAAUUUU [AstrosExc-TheB#12] | 616 nM | 766 nM | 873 nM | 784 nM | 552 nM
UCGAGUGAUGUUCGAUUUCAGUGAAGAGAUACCAGCCGCAGUGUAGGCCCUUGGCAGCUCGGCUAUUAUGACAUAUGCAGUUUAG [theeternabot_sameState_KL_Theo_A_29] | 125 nM | 121 nM | 119 nM | 122 nM | 80 nM
CCAGGAUGAUGAGGAUGAUAAAUUACUGAAGGAGCGCAUAUAGUUGCAGGUAGGUCGCGGUGAAUAAGUAUAGUGAUGUUAUACC [SSArgA.Aa] | 379 nM | 263 nM | 309 nM | 360 nM | 301 nM
CGGGAUGUUAAAGGAUAUAGCAGGUGAUACAAGAAAGUGAGUGAUGUUUAUGUAGAUGAUGAUAUGUUAGAAGGUUAACAAAACG [abcdefghijkl] | 1040 nM | 726 nM | 908 nM | 686 nM | 581 nM
GGGCAUGAUACGAUAAAAUAGUGGAGAGAUACCAGCGUUUUAGAUCGCCCUUGGCAGCUCUCGAGUGAUGUUCGGGUAGCUCUGA [Onedra] | 101 nM | 98.5 nM | 115 nM | 114 nM | 104 nM
GCCGUAGAUUGAAGGAGCGCCAUCUUACCAAGAGUGAUGUUCUUUGGUACCAUGUACAGCUGGCAGGUAGGUCGCAAUCUACGGC | 192 nM | 151 nM | 173 nM | 181 nM | 169 nM
AGUGCACUGUCAGGAUAUAUACAGUGAUGUUGUGUAUGUCGGCAAGUCAAAGACUUGCCAUUCUGUGUAGAAGGGACUGUGUACA [#04 K4 FMN B Exclusion] | 544 nM | 203 nM | 222 nM | 202 nM | 223 nM
AAGUGGGAACGGCCCAAUAAAGUGUUUGUCAAGGAUAUUAUUCACAUAAGAAGGUGACAGACCACCUCCGGAGUGAUGUUUUGGA [theeternabot_sameState_KL_FMN_A_42] | 581 nM | 443 nM | 719 nM | 508 nM | 539 nM
GGACACUAGGAAACUAGUGUCUCAACUGAAGGAGCGUGAAUAGUCACAGGUAGGUCGCAGUUUGUUAGUGAUGUUGACAUGAGUU [#16 K4 Arginine A Same State] | 302 nM | 394 nM | 514 nM | 439 nM | 277 nM
UAAAAUAAAUAAUAGAGAUAAUUACUCGAAGGAGCGACGAAUUCGUCAGGUAGGUCGCGAGUGAUGUUCGCAAAUAUUAUCUCAU [AK3 Exc Arginine A] | 212 nM | 328 nM | 295 nM | 345 nM | 261 nM
UUUAGGAGUGGUGUUGAUUAGGGAGCGGAAGGAGCGCCGAGGAAGGCAGGUAGGUCGCCGGAUUAUAGUGAUGUUAUGAAGAGGG [ExArg.M] | 875 nM | 723 nM | 792 nM | 912 nM | 654 nM
GGUUUAUAGGAGGAUACCAGUACGAAUAAAGUACAUUAAUAGUAGAGUGAUGUUCUAAAGUACCCUUGGCAGCUUAGAGUAAGUU [#18 K4 Theophylline B Exclusion] | 105 nM | 212 nM | 148 nM | 223 nM | 80.5 nM
GGGUUGAGCGGAAGGAGCGGCUGAACCAGUGAUGUUGGUUAAUCCAAGUGAUGUUGGAAAAGCCAGGUAGGUCGCCGCUUUAUCC [Same State Arg B GF 3] | 979 nM | 533 nM | 1180 nM | 965 nM | 774 nM
GCCGUACGCAUGGAUACCAGCAAGCAUAGCAGGAAACUGCUAUGCACCAGUGAUGUUGGAUGCCCUUGGCAGCCAUGCGUACGGC | 1250 nM | 754 nM | 926 nM | 439 nM | 1110 nM
UAACUCUUGCAGUGAUGUUGCAAGUAUGCUCAGGAUAUCAGGAAACUGAGAAGGGAGUUUCCUGAGCUUCUGCAAGAGCUCAGAA [KL-SSFMN-A6] | 618 nM | 408 nM | 547 nM | 375 nM | 382 nM
ACCGCAUUGGGAUGAUCCCAAUGCGCUGGUCGAGGACCGGUACGGCCGCCACUCGUCCAGUGAUGUUGGAAUUGGGCUACUGAAG [KL-XTryp-A11] | 134 nM | 86.7 nM | 183 nM | 195 nM | 61.1 nM
UGCUUUAGAAUACAAGGUAUUUACACUGAUACCAGUCAGUUAAAUGACCCUUGGCAGCAGUGUCAGUGAUGUUGACACAACACAU [Theo A Ex t4] | 183 nM | 173 nM | 180 nM | 157 nM | 164 nM
